From WO2011095545A1 (dated 2011)

B1: EXPGMP 80B10 (as a fusion with the Nanobody 2D3) (other)
chain: EVQLVESGGSLVQPGGSLRLSCAASGFTFDDYAMSWVRQVPGKGLEWVSSINWSGTHTDYADSVKGRFTISRNNANNTLYLQMNSLKSEDTAVYYCAKNWRDAGTTWFEKSGSAGQGTQVTVSSGGGGSGGGSYWWERRDWDFDVFGGGTPAAAEQKLISEEDLNGAAHHHHHH
notes: Nanobody-peptide fusion, expressed in E. coli, purified by IMAC/SEC; also called 2D3-9GS-EXP80B10
B2: 5F7-9GS-EXP89D03-9GS-EXP89D03 (other)
chain: EVQLVESGGGLVQAGGSLRLSCAASGITFSINTMGWYRQAPGKQRELVALISSIGDTYYADSVKGRFTISRDNAKNTVYLQMNSLKPEDTAVYYCKRFRTAAQGTDYWGQGTQVTVSSGGGGSGGGSWWEQDRDWDFDVFGGGTPGGGGSGGGSWWEQDRDWDFDVFGGGTP
notes: Fusion of Nanobody 5F7 with a tandem repeat of peptide 89D03; also called EXP486

Legend:
[1] = molecular target: T1, human serum albumin (human, UniProt P02768 25-609); test: SPR (BIAcore 3000), HSA on CM5 chip, 2D3-peptide fusion injected
T1 construct: Bought protein (Sigma, 99% pure); also called HSA

[2] = molecular target: T2, cynomolgus serum albumin (cynomolgus monkey, UniProt A2V9Z4 25-608); test: SPR (BIAcore 3000), 200 nM and 1 uM fusion injected on CM5 chip with ~900 RU cynomolgus serum albumin
T2 construct: also called cyno serum albumin
T2 sequence (A2V9Z4 25-608 limits assumed): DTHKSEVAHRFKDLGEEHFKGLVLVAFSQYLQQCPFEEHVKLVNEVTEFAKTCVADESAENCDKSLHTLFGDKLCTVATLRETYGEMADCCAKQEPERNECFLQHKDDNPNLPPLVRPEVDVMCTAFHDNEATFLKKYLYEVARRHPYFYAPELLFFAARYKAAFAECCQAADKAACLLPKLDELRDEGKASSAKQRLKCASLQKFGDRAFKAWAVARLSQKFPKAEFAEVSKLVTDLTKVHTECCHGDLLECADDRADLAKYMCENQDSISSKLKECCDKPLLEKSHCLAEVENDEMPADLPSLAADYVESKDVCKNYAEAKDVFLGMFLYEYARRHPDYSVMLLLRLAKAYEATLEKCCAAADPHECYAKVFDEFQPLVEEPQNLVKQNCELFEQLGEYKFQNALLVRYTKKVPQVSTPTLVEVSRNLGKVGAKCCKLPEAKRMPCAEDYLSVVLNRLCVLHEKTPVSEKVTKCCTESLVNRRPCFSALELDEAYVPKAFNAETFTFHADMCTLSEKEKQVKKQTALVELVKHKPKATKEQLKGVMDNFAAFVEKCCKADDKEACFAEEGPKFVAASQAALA

T1 sequence (P02768 25-609 limits assumed): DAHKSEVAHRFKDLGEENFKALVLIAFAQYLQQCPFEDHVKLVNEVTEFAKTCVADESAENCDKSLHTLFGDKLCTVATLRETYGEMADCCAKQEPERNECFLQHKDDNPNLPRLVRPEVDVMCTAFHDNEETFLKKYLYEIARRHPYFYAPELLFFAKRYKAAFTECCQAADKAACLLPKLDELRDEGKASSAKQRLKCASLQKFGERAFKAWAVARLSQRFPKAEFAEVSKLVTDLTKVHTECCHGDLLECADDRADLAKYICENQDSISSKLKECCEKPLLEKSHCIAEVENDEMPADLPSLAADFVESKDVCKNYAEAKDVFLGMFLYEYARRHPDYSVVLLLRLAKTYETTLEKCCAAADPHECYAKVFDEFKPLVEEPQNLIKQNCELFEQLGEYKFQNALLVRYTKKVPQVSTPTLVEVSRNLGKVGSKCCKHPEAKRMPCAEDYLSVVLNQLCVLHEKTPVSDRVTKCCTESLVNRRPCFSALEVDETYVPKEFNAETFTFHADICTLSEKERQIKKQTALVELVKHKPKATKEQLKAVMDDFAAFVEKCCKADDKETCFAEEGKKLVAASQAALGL

Binder | Kd [1] | binding result [2]
B1 | 16 nM | –
B2 | – | binds
